In patent publication US20240124585A1 (SUTRO BIOPHARMA, published 2024):

Key:
[1] = target: T1, human CD3 on T-cell lines (CD3-expressing Jurkat cells; HUT78 cells) (human, UniProt P07766 23-207); assay: flow cytometry, HUT78 cells
T1 construct: On cells it stands in the CD3/TCR complex

[2] = target: T2, human CD3 epsilon (Acro Cat #CDE-H5223) (human, UniProt P07766 23-126); assay: SPR (Biacore), antibody captured, human CD3 epsilon analyte
T2 construct: Bought recombinant protein; also called rhCD3E
T2 sequence (P07766 23-126 limits assumed): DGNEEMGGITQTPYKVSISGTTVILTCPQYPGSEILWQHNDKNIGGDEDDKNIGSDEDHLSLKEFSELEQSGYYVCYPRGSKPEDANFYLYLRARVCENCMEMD
Description: Anti-Fab or anti-Fc polyclonal antibodies were immobilized onto a CM5 chip (GE Life Sciences) using amine coupling chemistry (from Amine Coupling Kit, GE Life Sciences). The immobilization steps were carried out at a flow rate of 25 μl/min in 1×HBS-EP+ buffer (GE Life Sciences; 10× Stock diluted before use). The sensor surfaces were activated for 7 min with a mixture of NHS (0.05 M) and EDC (0.2 M). The Anti-Fab or Anti-Fc antibodies were injected over all 4 flow cells at a concentration of 25 μg/mL in 10 mM sodium acetate, pH 4.5, for 7 min. Ethanolamine (1 M, pH 8.5) was injected for 7 min to block any remaining activated groups.
Off-rate and kinetic binding experiments were performed at 25° C. using 1×HBS-EP+ buffer. Test and control antibodies were injected over the anti-Fab or anti-Fc surface at concentrations of 5-10 μg/mL for 12 seconds at a flow rate of 10 μL/min on flow cells 2, 3 and 4, followed by a buffer wash for 30 seconds at the same flow rate. […] After capturing ligand (antibody) on the anti-Fc or anti-Fab surface, the analyte (human CD3 epsilon, Acro Cat #CDE-H5223) was bound for 180 seconds, followed by a 600 second dissociation phase at a flow rate of 50 μL/min. Between each ligand capture and analyte binding cycle, regeneration was carried out using two injections of 10 mM Glycine pH 2.0 for 30 seconds at 30 μL/min, followed by a 30 second buffer wash step.
The data was fit with the Biacore T200 Evaluation software, using a 1-1 Langmuir binding model. KD (affinity, nM) was determined as a ratio of the kinetic rate constants calculated from the fits of the association and dissociation phases.

T1 sequence (P07766 23-207 limits assumed): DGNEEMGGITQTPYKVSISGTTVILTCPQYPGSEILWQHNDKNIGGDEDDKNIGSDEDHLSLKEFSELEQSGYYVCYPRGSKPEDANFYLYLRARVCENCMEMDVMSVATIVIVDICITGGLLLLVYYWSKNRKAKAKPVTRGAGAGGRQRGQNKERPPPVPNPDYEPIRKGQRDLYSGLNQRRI

Row | Bmax (MFI) [1] [MFI] | Kd [1] [nM] | Kd [2] [nM] | koff [2] [s⁻¹] | kon [2] [M⁻¹ s⁻¹] | Binder
1 | 119 | 6.61 | – | – | – | 2037-B10_Hc-R50D (antibody, human IgG1, lambda, V domains shown, human IgG1, lambda; also called SRP 2037 R50D; 2037-B10_VH-R50D) VH: EVQLVESGGGLVKPGGSLRLSCAASGFTFNKYAMNWVRQAPGKGLEWVADIRTKYNNYATYYADSVKDRFTISRDDSKNTAYLQMNSLKTEDTAVYYCVRHGNFGNSYISYWAYWGQGTPVTVSS VL: QTVVTQEPSLTVSPGGTVTLTCGSSTGAVTSGYYPNWLQQKPGQAPRGLIGGTKFLAPGTPARFSGSLLGGKAALTLSGVQPEDEAEYYCALWYSNRWVFGGGTQLTVTG
2 | 1060 | 0.94 | 1.39 | 0.000377 | 271000 | 2037-B10_Hc-K31D (antibody, human IgG1, lambda, V domains shown, human IgG1, lambda; also called SRP 2037 K31D; 2037-B10_VH-K31D) VH: EVQLVESGGGLVKPGGSLRLSCAASGFTFNDYAMNWVRQAPGKGLEWVARIRTKYNNYATYYADSVKDRFTISRDDSKNTAYLQMNSLKTEDTAVYYCVRHGNFGNSYISYWAYWGQGTPVTVSS VL: QTVVTQEPSLTVSPGGTVTLTCGSSTGAVTSGYYPNWLQQKPGQAPRGLIGGTKFLAPGTPARFSGSLLGGKAALTLSGVQPEDEAEYYCALWYSNRWVFGGGTQLTVTG
3 | 896 | 0.29 | – | – | – | 2037-B10_Lc-S95D (antibody, V domains shown, human IgG1, lambda; also called SRP 2037 S95D; 2037-B10 VL-S95D) VH: not shown VL: QTVVTQEPSLTVSPGGTVTLTCGSSTGAVTSGYYPNWLQQKPGQAPRGLIGGTKFLAPGTPARFSGSLLGGKAALTLSGVQPEDEAEYYCALWYDNRWVFGGGTQLTVTG
4 | 857 | 0.37 | 0.856 | 0.000289 | 337000 | 2037-B10_Hc-K54D (antibody, human IgG1, lambda, V domains shown, human IgG1, lambda; also called SRP 2037 K54D; 2037-B10_VH-K54D) VH: EVQLVESGGGLVKPGGSLRLSCAASGFTFNKYAMNWVRQAPGKGLEWVARIRTDYNNYATYYADSVKDRFTISRDDSKNTAYLQMNSLKTEDTAVYYCVRHGNFGNSYISYWAYWGQGTPVTVSS VL: QTVVTQEPSLTVSPGGTVTLTCGSSTGAVTSGYYPNWLQQKPGQAPRGLIGGTKFLAPGTPARFSGSLLGGKAALTLSGVQPEDEAEYYCALWYSNRWVFGGGTQLTVTG
5 | 1010 | 0.36 | 0.767 | 0.000207 | 270000 | 2037-B10_Hc-G105D (antibody, human IgG1, lambda, V domains shown, human IgG1, lambda; also called SRP 2037 G105D; 2037-B10_VH-G105D) VH: EVQLVESGGGLVKPGGSLRLSCAASGFTFNKYAMNWVRQAPGKGLEWVARIRTKYNNYATYYADSVKDRFTISRDDSKNTAYLQMNSLKTEDTAVYYCVRHGNFDNSYISYWAYWGQGTPVTVSS VL: QTVVTQEPSLTVSPGGTVTLTCGSSTGAVTSGYYPNWLQQKPGQAPRGLIGGTKFLAPGTPARFSGSLLGGKAALTLSGVQPEDEAEYYCALWYSNRWVFGGGTQLTVTG
6 | 820 | 0.12 | 0.239 | 0.00019 | 796000 | 2037-B10_Hc-Y108D (antibody, human IgG1, lambda, V domains shown, human IgG1, lambda; also called 2037-B10_VH-Y108D) VH: EVQLVESGGGLVKPGGSLRLSCAASGFTFNKYAMNWVRQAPGKGLEWVARIRTKYNNYATYYADSVKDRFTISRDDSKNTAYLQMNSLKTEDTAVYYCVRHGNFGNSDISYWAYWGQGTPVTVSS VL: QTVVTQEPSLTVSPGGTVTLTCGSSTGAVTSGYYPNWLQQKPGQAPRGLIGGTKFLAPGTPARFSGSLLGGKAALTLSGVQPEDEAEYYCALWYSNRWVFGGGTQLTVTG
7 | 166 | 28.6 | 85 | 0.000583 | 6860 | 2037-B10_Hc-N103D (antibody, human IgG1, lambda, V domains shown, human IgG1, lambda; also called SRP 2037 N103D; 2037-B10_VH-N103D) VH: EVQLVESGGGLVKPGGSLRLSCAASGFTFNKYAMNWVRQAPGKGLEWVARIRTKYNNYATYYADSVKDRFTISRDDSKNTAYLQMNSLKTEDTAVYYCVRHGDFGNSYISYWAYWGQGTPVTVSS VL: QTVVTQEPSLTVSPGGTVTLTCGSSTGAVTSGYYPNWLQQKPGQAPRGLIGGTKFLAPGTPARFSGSLLGGKAALTLSGVQPEDEAEYYCALWYSNRWVFGGGTQLTVTG
8 | 1360 | 1.27 | 1.07 | 0.000278 | 259000 | 2037-B10_Hc-F27D (antibody, human IgG1, lambda, V domains shown, human IgG1, lambda; also called SRP 2037 F27D; 2037-B10_VH-F27D) VH: EVQLVESGGGLVKPGGSLRLSCAASGDTFNKYAMNWVRQAPGKGLEWVARIRTKYNNYATYYADSVKDRFTISRDDSKNTAYLQMNSLKTEDTAVYYCVRHGNFGNSYISYWAYWGQGTPVTVSS VL: QTVVTQEPSLTVSPGGTVTLTCGSSTGAVTSGYYPNWLQQKPGQAPRGLIGGTKFLAPGTPARFSGSLLGGKAALTLSGVQPEDEAEYYCALWYSNRWVFGGGTQLTVTG
9 | 1600 | 0.7 | – | – | – | 2037-B10_Lc-Y94D (antibody, V domains shown, human IgG1, lambda; also called SRP 2037 Y94D; 2037-B10 VL-Y94D) VH: not shown VL: QTVVTQEPSLTVSPGGTVTLTCGSSTGAVTSGYYPNWLQQKPGQAPRGLIGGTKFLAPGTPARFSGSLLGGKAALTLSGVQPEDEAEYYCALWDSNRWVFGGGTQLTVTG
